{"source": "IntAct's records for PubMed 17805295", "molecular_target": "Cdh23, Q99PF4-1", "sequence (Q99PF4 whole entry)": "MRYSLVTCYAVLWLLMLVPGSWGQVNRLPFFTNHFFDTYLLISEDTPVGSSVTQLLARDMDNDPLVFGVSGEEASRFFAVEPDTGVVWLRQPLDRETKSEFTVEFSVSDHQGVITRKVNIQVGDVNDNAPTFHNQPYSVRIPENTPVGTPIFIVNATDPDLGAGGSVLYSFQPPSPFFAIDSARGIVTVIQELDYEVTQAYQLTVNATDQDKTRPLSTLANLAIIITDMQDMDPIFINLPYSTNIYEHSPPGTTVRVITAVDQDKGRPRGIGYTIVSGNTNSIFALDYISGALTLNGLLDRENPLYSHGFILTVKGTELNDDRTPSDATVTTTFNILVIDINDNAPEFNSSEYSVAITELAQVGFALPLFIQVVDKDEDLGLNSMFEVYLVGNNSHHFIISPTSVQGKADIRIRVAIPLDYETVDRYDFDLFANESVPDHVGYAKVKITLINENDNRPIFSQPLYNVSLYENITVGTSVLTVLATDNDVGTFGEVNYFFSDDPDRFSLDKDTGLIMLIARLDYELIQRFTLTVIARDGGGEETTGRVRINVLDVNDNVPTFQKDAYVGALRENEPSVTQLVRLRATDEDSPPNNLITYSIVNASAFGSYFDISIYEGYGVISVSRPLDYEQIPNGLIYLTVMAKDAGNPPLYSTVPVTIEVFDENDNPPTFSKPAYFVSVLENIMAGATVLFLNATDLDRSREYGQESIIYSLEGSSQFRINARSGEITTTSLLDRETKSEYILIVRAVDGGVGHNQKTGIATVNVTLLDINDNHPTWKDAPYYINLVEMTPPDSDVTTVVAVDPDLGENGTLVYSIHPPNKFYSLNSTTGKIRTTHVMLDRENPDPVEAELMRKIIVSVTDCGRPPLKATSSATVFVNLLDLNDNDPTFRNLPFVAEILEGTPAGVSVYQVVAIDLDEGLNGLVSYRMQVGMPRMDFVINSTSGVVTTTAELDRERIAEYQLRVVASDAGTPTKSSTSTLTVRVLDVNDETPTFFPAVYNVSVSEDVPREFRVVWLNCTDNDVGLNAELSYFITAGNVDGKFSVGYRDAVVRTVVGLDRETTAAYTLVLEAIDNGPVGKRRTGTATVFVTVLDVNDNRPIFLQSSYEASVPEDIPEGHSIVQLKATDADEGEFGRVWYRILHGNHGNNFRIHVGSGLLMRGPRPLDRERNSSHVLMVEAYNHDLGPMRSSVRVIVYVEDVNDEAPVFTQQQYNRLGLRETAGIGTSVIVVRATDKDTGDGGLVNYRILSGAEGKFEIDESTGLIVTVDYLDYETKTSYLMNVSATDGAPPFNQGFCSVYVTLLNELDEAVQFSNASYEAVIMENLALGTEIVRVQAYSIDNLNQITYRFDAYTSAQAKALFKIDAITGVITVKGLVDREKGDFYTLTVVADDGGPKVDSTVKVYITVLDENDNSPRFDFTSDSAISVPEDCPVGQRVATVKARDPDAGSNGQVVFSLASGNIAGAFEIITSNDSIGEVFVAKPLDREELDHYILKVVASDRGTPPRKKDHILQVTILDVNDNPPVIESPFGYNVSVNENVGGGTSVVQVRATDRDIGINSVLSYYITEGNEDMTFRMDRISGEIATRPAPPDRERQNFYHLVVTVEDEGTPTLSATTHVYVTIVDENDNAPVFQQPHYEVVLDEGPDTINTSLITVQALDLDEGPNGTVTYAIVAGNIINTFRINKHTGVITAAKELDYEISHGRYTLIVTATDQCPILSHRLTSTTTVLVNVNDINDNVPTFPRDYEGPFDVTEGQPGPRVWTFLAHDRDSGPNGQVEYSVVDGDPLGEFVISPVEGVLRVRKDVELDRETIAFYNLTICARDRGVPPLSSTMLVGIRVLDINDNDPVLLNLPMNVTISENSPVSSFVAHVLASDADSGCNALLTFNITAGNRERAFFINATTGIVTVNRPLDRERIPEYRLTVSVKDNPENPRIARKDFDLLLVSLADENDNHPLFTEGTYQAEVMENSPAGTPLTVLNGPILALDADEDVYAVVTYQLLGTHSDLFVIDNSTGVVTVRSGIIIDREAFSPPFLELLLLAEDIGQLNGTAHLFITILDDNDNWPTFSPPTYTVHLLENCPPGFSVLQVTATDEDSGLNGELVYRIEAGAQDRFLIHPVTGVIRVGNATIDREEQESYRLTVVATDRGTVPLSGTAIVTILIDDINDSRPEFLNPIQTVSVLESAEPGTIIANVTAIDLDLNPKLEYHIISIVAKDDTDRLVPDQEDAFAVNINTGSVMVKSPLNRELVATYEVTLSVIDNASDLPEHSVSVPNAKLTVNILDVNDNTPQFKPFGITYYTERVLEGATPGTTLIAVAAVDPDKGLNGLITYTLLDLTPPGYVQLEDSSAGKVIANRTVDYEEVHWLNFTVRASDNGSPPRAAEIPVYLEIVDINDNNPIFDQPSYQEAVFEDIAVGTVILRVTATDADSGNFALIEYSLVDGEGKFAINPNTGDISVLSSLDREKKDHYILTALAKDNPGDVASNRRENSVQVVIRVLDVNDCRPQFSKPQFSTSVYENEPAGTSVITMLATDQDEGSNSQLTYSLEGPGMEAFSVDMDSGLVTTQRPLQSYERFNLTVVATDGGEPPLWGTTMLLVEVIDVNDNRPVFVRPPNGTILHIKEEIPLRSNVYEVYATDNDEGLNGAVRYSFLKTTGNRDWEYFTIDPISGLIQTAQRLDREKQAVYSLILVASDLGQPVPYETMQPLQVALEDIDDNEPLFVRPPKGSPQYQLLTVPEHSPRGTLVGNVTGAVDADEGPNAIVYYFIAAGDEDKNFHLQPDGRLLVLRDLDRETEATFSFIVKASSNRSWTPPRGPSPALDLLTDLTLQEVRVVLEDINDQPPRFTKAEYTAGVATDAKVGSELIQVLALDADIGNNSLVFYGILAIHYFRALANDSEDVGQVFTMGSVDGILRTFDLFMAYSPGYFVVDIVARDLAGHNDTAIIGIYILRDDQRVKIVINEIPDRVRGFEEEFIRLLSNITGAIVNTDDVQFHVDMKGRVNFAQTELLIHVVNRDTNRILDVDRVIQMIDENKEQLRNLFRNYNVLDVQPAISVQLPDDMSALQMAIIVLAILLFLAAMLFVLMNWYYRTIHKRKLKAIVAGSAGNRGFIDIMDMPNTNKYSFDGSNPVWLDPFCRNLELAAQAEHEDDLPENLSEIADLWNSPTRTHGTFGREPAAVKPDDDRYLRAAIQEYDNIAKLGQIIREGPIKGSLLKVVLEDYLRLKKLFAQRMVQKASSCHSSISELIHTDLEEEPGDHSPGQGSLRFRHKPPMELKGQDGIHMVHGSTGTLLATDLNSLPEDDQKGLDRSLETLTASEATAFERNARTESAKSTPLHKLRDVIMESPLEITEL"}
{"substance": "Protocadherin-15 (Mus musculus), Q99PJ1 R139G", "values": [{"measurement": "effect of a mutation on the interaction", "value": "disrupting interaction strength"}]}
